Laboratory results reported in the RNAGym collection of RNA variant scans (doi:10.1073/pnas.2313332121).

B1: TPR t1 (parent)
chain: GACCAAUCUGCCCUCAGAGCUCGAGAACAUCUUCGGAUGCAGAGGAGGCAGGCUUCGGUGGCGCGAUAGCGCCAACGUCCUCAACCUCCAAUGCAUCCCACCACAUGAUGAUGCCUGAAGAGCCUUGGUUUUUUG

Variants of: B1
Test: polymerase ribozyme fitness, log enrichment relative to wild type (log ratio); higher = more active; in vitro selection for triplet polymerase activity
How it was run: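 Mutant libraries of both subunits of a heterodimeric triplet polymerase ribozyme were PCR-built, transcribed, and selected once in triplicate, with frozen incubation at −7 °C and capture of gel-excised extended constructs on streptavidin beads before RT-PCR. Illumina sequencing of input and output libraries was filtered to genotypes with ≥10 input reads and ≥1 read per output. Fitness is the logarithm of genotype enrichment over wild-type enrichment, using inverse-variance-weighted replicate averages. The logarithm is base 2.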

Variant	polymerase ribozyme fitness (log ratio)
C3U U9C C88G U116C	-0.482
C4G C12U	-2.1
C3U C4G	-2.81
C4G C11G C49A G51C G58A C73U C79U	-4.64
C4A C13U A24C C40G A111G	-5.59
C4G G47A	-2.34
C3U G42C A91C	-2.67
C3U G52A A121U	1.95
C4A U9G G42C	-3.15
C3U A95G	0.0555
C3U C124G	2.17
C3U C124A	1.2
C4G C20U C94U A111U	-5.59
C3U G35U C70A C99A C115A	-4.32
C3U G44U C82A	-1.68
C3U U14A A111U G120U	-5.57
C3U C101A G117U G135U	-4.63
C4G C8U C72A U78A U87A	-2.03
C4A G17U C73U	-3.37
C4A G36C C104U A119G A121U G128U U129A	0.665
C3U G63A C76U G110A C124U	-5.42

Variant	polymerase ribozyme fitness (log ratio)
C3U C40U	-1.92
C4A A5U C15G C88U G120C	-4.83
C3U C53G C89G	-1.41
C4G G44U U78G U96G U106C	-4.97
C3U G71U C101G	-3.08
C4A G39C A75G C114G G120A	-5.14
C4A C40U C62A U112A	-2.53
C3U C13U C15U G48U G113A	-2.97
C4G G10U G63U G69U G120A	0.883
C3U C8A A16G A43C C79A C88U C124A U125A U132C	-3.17
C4A G69U U106C C124U	-1.05
C4G C8U C15A G44U G61A	-4.85
C3U C12A C13A C49U C72G C99U U116C	-6.31
C3U C86U C104A	-1.75
C3U G120U	-0.507
C4G A43U A46G C62U G63A U78C C114U G117U	-5.92
C3U G113A	-1.68
C4G C53A C56U C99U U130G	-5.15
C4A U32C G69U G113A	-2.74
C3U C8A U54A G69C	-1.46
C4G G10U C20G G69A C114U	-6.96

Variant	polymerase ribozyme fitness (log ratio)
C4G C13G C49A G60A C62U	-4.62
C3U G44A	-1.11
C3U G44U	-1.62
C4G A66G C72U C80U C123A	-2.88
C3U C53U G57C U59A C88G	-2.35
C4G A91C G120U	-1.84
C3U G45U	-1.13
C4A U32C G61A U106A G127U U130G G135U	-2.56
C4A G48A G57A C85U C101A	-4.21
C3U C85A G117A	-2.52
C4A U14A	-5.35
C3U C53U C73U C88U	-0.301
C4G C115U	-2.19
C3U C12U C72U C85A	-1.01
C4G G36U	-2.8
C3U G47U C53G U96G C104U A118G C124U	-1.09
C4A A74G	-1.14
C4A A74U	-1.77
C4A C56U	-0.847
C4A C56A	-2.53
C4A C56G	-1.83

Variant	polymerase ribozyme fitness (log ratio)
C3U C15G C72A	-3.04
C4A G42A	-2.74
C3U G17U C72U	-2.73
C3U G58A C101G	-2.57
C3U C8U A105G	-2.67
C4A G63U A119G	-0.807
C3U C94G C114A U125A	-4.28
C3U U7G A29G C101U U106C	-4.76
C3U G58A	-0.199
C3U G58C	-0.467
C3U G44U G45U G63U C88A	-2.78
C4G A6U C72G A84C C115A	-5.17
C3U C11U G48A G117C C123G U129C U133C	-2.05
C3U U30G C123A C124U	-5.14
C3U G42U	-1.55
C3U C15A U81A U92G C115U U125G	-5.92
C4A C56G A84G C89U C115A	-4.85
C4G A50U	-3.4
C3U C79U C94U G110U	-1.77
C4A C11G C13A C53U G69C U81G G110A	-6.32
C4G C8G A37U G45A U131G	-2.92
